US20060057669A1, “Inactive transcription factor tif-ia and uses thereof” (priority 2002, published 2006)

B1: GST/TIF-IA409-651: GST fusion of the C-terminal part of TIF-IA containing aa 410-651 (protein, UniProt Q9NYV6 410-651, looked up, fragment)
chain: FLARAKFIPLITVKSCLDLLVNWLHIYLNNQDSGTKAFCDVALHGPFYSACQAVFYTFVFRHKQLLSGNLKEGLQYLQSLNFERIVMSQLNPLKICLPSVVNFFAAITNKYQLVFCYTIIERNNRQMLPVIRSTAGGDSVQICTNPLDTFFPFDPCVLKRSKKFIDPIYQVWEDMSAEELQEFKKPMKKDIVEDEDDDFLKGEVPQNDTVIGITPSSFDTHFRSPSSSVGSPPVLYMQPSPL
modifications: GST fusion
B2: GST/TIF-IA409-632: GST fusion of a TIF-IA C-terminal fragment lacking amino acids 633-651 (protein, UniProt Q9NYV6 409-632, looked up, fragment)
chain: SFLARAKFIPLITVKSCLDLLVNWLHIYLNNQDSGTKAFCDVALHGPFYSACQAVFYTFVFRHKQLLSGNLKEGLQYLQSLNFERIVMSQLNPLKICLPSVVNFFAAITNKYQLVFCYTIIERNNRQMLPVIRSTAGGDSVQICTNPLDTFFPFDPCVLKRSKKFIDPIYQVWEDMSAEELQEFKKPMKKDIVEDEDDDFLKGEVPQNDTVIGITPSSFDTHFR
modifications: GST fusion
B3: UBF: basal Pol I transcription initiation factor, FLAG-tagged UBF1 purified from Sf9 cells (protein, UniProt P17480 1-764, looked up)
Nucleolar transcription …: MNGEADCPTDLEMAAPKGQDRWSQEDMLTLLECMKNNLPSNDSSKFKTTESHMDWEKVAFKDFSGDMCKLKWVEISNEVRKFRTLTELILDAQEHVKNPYKGKKLKKHPDFPKKPLTPYFRFFMEKRAKYAKLHPEMSNLDLTKILSKKYKELPEKKKMKYIQDFQREKQEFERNLARFREDHPDLIQNAKKSDIPEKPKTPQQLWYTHEKKVYLKVRPDATTKEVKDSLGKQWSQLSDKKRLKWIHKALEQRKEYEEIMRDYIQKHPELNISEEGITKSTLTKAERQLKDKFDGRPTKPPPNSYSLYCAELMANMKDVPSTERMVLCSQQWKLLSQKEKDAYHKKCDQKKKDYEVELLRFLESLPEEEQQRVLGEEKMLNINKKQATSPASKKPAQEGGKGGSEKPKRPVSAMFIFSEEKRRQLQEERPELSESELTRLLARMWNDLSEKKKAKYKAREAALKAQSERKPGGEREERGKLPESPKRAEEIWQQSVIGDYLARFKNDRVKALKAMEMTWNNMEKKEKLMWIKKAAEDQKRYERELSEMRAPPAATNSSKKMKFQGEPKKPPMNGYQKFSQELLSNGELNHLPLKERMVEIGSRWQRISQSQKEHYKKLAEEQQKQYKVHLDLWVKSLSPQDRAAYKEYISNKRKSMTKLRGPNPKSSRTTLQSKSESEEDDEEDEDDEDEDEEEEDDENGDSSEDGGDSSESSSEDESEDGDENEEDDEDEDDDEDDDEDEDNESEGSSSSSSSSGDSSDSDSN
modifications: UBF1 FLAG tag
notes: basal Pol I transcription initiation factor, FLAG-tagged UBF1 purified from Sf9 cells

How the values were obtained:
Format in all cases: biochemical
Pol I transcription [1] = experiment: Complementation of Pol I transcription in nuclear extracts from rapamycin-treated FM3A cells
Protocol: (B) Complementation of transcriptional activity in nuclear extracts from rapamycin-treated cells. Transcription reactions contained nuclear extracts (30 μg) from untreated (NE) or rapamycin-treated (NERapa) FM3A cells. In lanes 3-7, fractions containing partially purified Pol I transcription factors were added to NERapa-containing reactions.
(C) TIF-IA activates transcription in nuclear extracts form rapamycin-treated cells. Reactions were complemented with either 1 μl (lanes 2 and 5) of cellular TIF-IA (PL-650 fraction) or 20 ng (lanes 3 and 6) of immunopurified recombinant TIF-IA that has been expressed in SF9 cells.
(A) mTOR rescues transcription in vitro. Pol I transcription was assayed in nuclear extracts from rapamycin-treated FM3A cells. Reactions were supplemented with 50 ng TIF-IA (lane 1) or 10 ng, 20 ng and 30 ng of HA-mTOR (lanes 3-5).
(B) S6K1 activates Pol I transcription in extracts from rapamycin-treated cells. NERapa was supplemented with 50 ng TIF-IA (lane 1) or 100, 150 and 200 ng of GST-S6K1 (lanes 3-5) or GST-S6K1dd (lanes 6-8).
(§1) Nuclear extracts were prepared from exponentially growing (8×10^5 cells/ml), density-arrested or PD98059-treated (CN Bioscience, Bad Soden, Germany) 40 μM, 0.5 hr) or rapamycin-treated FM3A cells (ATCC, Manassas, USA). 25 μl assays contained 50 ng of template DNA (pMr600/EcoRI), 30 μg nuclear extract proteins and 12 mM Hepes-KOH, [pH8.0], 0.1 mM EDTA, 5 mM MgCl2, 80 mM KCl, 10 mM creatine phosphate, 12% (v/v) glycerol, 0.66 mM each of ATP, GTP and CTP, 0.01 mM UTP and 0.5 μCi [α-^32P]UTP (5000 Ci/mmol). After incubation for 60 min at 30° C., RNA was extracted and analyzed on non-denaturing 5% polyacrylamide gels
mTOR and S6K1 were purified from HEK293T cells overexpressing HA-tagged mTOR or GST/myc-tagged S6K1, respectively. 5×10^6 cells were lysed in 0.8 ml IP buffer, centrifuged at 10,000×g for 20 min, and the supernatants were incubated for 4 hr at 4° C. with either 15 μg anti-HA antibodies bound to 20 μl protein G-agarose (for HA-mTOR) or 20 μl packed GST-glutathione beads (for GST-myc-S6K1). […]

RSK2 = target: T1, RSK2 (Mus musculus, UniProt P18654, A376E/A378E/F387I/G384D/H379Q/INS385D/L381M/N377E/Q380E/S369E/S386Y/T365E); experiment: In vitro kinase assay with immunopurified RSK2
T1 construct: made in house; host or cells: HEK293T (kinase, immunopurified via HA); E. coli BL21(DE3) (GST substrate)
Protocol: (A) Tryptic peptide maps of recombinant TIF-IA phosphorylated by RSK2 in vitro. GST/TIF-IA409-651 was phosphorylated with HA-RSK-CA in vitro and the phosphopeptide pattern was compared with that of wild-type TIF-IA and TIF-IA1-632 labeled in vivo.
HA-tagged ERK1/2 or RSK2-CA was overexpressed in HEK293T cells, immunopurified and immobilized to protein G agarose. After stringent washing, the beads were suspended in 20 μl of 1.5× kinase assay buffer (75 mM Tris-HCl [pH 8.0], 15 mM MgCl2, 1.5 mM DTT, 5% glycerol) and assayed for activity. 30 μl reactions contained 100 μM ATP, 0.2 μCi of […] (5000 Ci/mmol), 0.5-1 μg S6 peptide (RRSSLRA) or GST/TIF-IA (Yuan et al. EMBO Reports 3 (2002) 1082-1087) and 10 fmoles RSK. After incubation for 30 min at 30° C., 5 μl of the supernatants were spotted onto phosphocellulose paper (Whatman p81), washed with 150 mM orthophosphoric acid and quantified with a PhosphorImager (Molecular Dynamics, Inc.). Alternatively, labeled GST/TIF-IA was subjected to SDS-PAGE, blotted onto nitrocellulose, digested with trypsin and analyzed by two-dimensional phosphopeptide mapping.
Phosphoamino acid analysis has established that TIF-IA is exclusively phosphorylated on serine residues (data not shown). The C-terminal tryptic peptide of TIF-IA contains three S—P sites (FIG. 4B, upper panel), a known target motif for MAPKs. […]

Pol I transcription [2] = experiment: Complementation of Pol I transcription in nuclear extracts from PD98059-treated FM3A cells; conditions: standard transcription system containing ATP and GTP
Protocol: (C) TIF-IA, but not UBF, rescues Pol I transcription in extracts from PD98059-treated cells. Nuclear extracts from untreated or PD98059-treated FM3A cells were supplemented with 20 and 40 ng of purified TIF-IA and/or UBF (10 ng in lanes 7 and 9, 50 ng in lanes 3, 8 and 10).
(D) TIF-IA activates transcription in extracts from PD98059-treated cells in the presence of AMP-PNP and GMP-PNP. Nuclear extracts from PD98059-treated FM3A cells were supplemented with 40 ng of purified TIF-IA and assayed in the standard transcription system containing ATP and GTP (ATP, lanes 1, 2) or AMP-PNP and GMP-PNP (AMP-PNP, lanes 3, 4)
(D) ERK/RSK-dependent phosphorylation activates Pol I transcription in vitro. Nuclear extracts from PD98059-treated FM3A cells were supplemented with 40 ng of TIF-IA, 10 ng of HA-RSK, or 10 ng of HA-ERK as indicated, and transcriptional activity was assayed in the standard transcription system containing ATP and GTP (lanes 4-8) or AMP-PNP and GMP-PNP (lanes 9-13).
as §1
To test whether both TIF-IA and UBF, or TIF-IA alone, were targeted by ERK-mediated phosphorylation, nuclear extracts from untreated and PD98059-treated cells were assayed for rDNA transcription in the absence and presence of exogenous TIF-IA or UBF (FIG. 2C). If both UBF and TIF-IA were inactivated by PD98059, rescue of Pol I transcriptional activity would require both factors, whereas TIF-IA alone would be sufficient if it was the only factor that is inactivated by inhibition of the ERK pathway. […]

T1 sequence (P18654 with tags, fused parts or gaps with the stated changes): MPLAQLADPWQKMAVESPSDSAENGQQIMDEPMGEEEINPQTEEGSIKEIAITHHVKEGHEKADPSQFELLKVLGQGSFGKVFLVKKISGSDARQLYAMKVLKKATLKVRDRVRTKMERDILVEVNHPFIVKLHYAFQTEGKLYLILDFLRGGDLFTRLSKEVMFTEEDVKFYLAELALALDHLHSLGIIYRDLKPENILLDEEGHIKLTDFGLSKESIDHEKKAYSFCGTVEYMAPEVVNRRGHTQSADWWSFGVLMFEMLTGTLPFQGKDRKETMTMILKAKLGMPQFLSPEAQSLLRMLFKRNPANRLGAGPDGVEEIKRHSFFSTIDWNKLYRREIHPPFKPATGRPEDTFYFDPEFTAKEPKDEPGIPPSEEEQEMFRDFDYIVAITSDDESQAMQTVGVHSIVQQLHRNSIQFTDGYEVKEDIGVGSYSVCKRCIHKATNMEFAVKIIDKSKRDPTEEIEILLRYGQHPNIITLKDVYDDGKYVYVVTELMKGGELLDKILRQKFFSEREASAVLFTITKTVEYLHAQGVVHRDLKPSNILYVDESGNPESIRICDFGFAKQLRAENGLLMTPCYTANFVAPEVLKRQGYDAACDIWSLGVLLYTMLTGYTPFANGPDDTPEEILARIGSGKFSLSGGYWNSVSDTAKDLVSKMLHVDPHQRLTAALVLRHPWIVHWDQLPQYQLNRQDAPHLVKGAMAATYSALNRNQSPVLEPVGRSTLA

| Molecule | phosphorylation by RSK2 in vitro (RSK2) | other results |
| --- | --- | --- |
| S6K1: GST/myc-tagged S6 kinase purified from HEK293T cells | – | rescue of Pol I transcription in extracts from rapamycin-treated cells (Pol I transcription [1]): activated Pol I transcription to an extent that compared to that of exogenous TIF-IA |
| B1 | efficiently phosphorylated | – |
| B2 | not phosphorylated | – |
| B3 | – | rescue of Pol I transcription in extracts from PD98059-treated cells (Pol I transcription [2]): had no effect |
